Measured values reported in US20150203577A1 (Chugai, published 2015).

T1: mouse FcγRII extracellular domain, C-terminally His-tagged (mouse, UniProt P08101 30-210)
T1 construct: the whole entry is named; also called mFcγRII; mFcgRII
T1 sequence: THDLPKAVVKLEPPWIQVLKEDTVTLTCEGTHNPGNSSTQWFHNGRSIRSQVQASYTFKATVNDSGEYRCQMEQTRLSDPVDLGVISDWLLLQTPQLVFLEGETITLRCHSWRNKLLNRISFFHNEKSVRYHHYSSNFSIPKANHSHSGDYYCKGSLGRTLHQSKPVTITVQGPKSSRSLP

T2: mouse FcγRIII extracellular domain, C-terminally His-tagged (mouse, UniProt P08508 31-215)
T2 construct: the whole entry is named; also called mFcγRIII; mFcgRIII
T2 chain: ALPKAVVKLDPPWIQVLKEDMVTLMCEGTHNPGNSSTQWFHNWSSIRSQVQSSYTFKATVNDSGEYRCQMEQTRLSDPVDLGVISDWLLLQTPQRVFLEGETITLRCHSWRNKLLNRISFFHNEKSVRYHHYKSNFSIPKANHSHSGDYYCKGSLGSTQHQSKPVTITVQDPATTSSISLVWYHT

T3: mouse FcγRII (mouse, UniProt P08101 30-210)
T3 construct: also called mFcγRII; mFcgRII
T3 sequence: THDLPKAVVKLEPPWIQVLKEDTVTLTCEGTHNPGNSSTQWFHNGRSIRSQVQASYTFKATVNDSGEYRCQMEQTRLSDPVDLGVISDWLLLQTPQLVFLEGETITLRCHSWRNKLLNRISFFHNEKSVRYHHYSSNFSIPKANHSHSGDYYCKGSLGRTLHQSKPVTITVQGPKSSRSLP

T4: mouse FcγRIII extracellular domain, C-terminal His tag (mouse, UniProt P08508 31-215)
T4 construct: Whole entry named; also called mFcγRIII; mFcgRIII
T4 chain: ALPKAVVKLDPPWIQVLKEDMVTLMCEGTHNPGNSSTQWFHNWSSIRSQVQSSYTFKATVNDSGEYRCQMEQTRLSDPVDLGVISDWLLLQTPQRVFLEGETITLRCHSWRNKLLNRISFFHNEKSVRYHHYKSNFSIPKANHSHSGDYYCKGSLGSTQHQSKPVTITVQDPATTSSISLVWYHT

T5: mouse FcγRII extracellular domain, C-terminal His tag (mouse, UniProt P08101 30-210)
T5 construct: Whole entry named; also called mFcγRII; mFcgRII
T5 sequence: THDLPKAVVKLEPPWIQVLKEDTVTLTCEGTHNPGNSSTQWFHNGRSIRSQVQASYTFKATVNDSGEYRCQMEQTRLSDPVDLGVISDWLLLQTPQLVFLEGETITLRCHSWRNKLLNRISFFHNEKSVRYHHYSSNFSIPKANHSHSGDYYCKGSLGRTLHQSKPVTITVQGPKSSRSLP


Assays:
[1] = molecular target: T1, mouse FcγRII extracellular domain, …; experiment: SPR Biacore T200, KD ratio
Procedure: (§1) As for alterations, “X000Z” represents the substitution of amino acid X at EU numbering position 000 by amino acid Z. In this context, X and Z represent the one-letter codes of the amino acid residues.
(§2) Each altered antibody was analyzed for its interaction with each Fcγ receptor prepared above using Biacore T100 (GE Healthcare Japan Corp.), Biacore T200 (GE Healthcare Japan Corp.), Biacore A100, or Biacore 4000. The running buffer used was HBS-EP+ (GE Healthcare Japan Corp.). The assay temperature was set to 25° C. The sensor chips used were chips prepared by immobilizing Protein L (ACTIGEN or BioVision) onto Series S Sensor Chip CM5 (GE Healthcare Japan Corp.) or Series S Sensor Chip CM4 (GE Healthcare Japan Corp.) by the amine coupling method.
(§3) In order to calculate the KD value of each altered antibody for FcγR, kinetic analysis was conducted according to the following method: first, the antibody of interest was captured onto any of these chips and allowed to interact with mFcγR diluted with a running buffer. For the obtained sensorgram, the assay results were globally fit into the 1:1 Langmuir binding model using Biacore Evaluation Software to calculate an association rate constant ka (L/mol/s) and a dissociation rate constant kd (1/s). From these values, the dissociation constant KD (mol/L) was calculated.

[2] = molecular target: T2, mouse FcγRIII extracellular domain, …; experiment: SPR Biacore T200, KD ratio
Procedure: as §1, §2, §3

[3] = molecular target: T1, mouse FcγRII extracellular domain, …; experiment: SPR Biacore T200, antibody captured on Protein L
Procedure: as §1, §2, §3

[4] = molecular target: T2, mouse FcγRIII extracellular domain, …; experiment: SPR Biacore T200, antibody captured on Protein L
Procedure: as §1, §2, §3

mouse FcγRII = molecular target: T3, mouse FcγRII; experiment: told of the L104-mk1 form; SPR (Table 28) was run on the MRAL-k0 form
[5] = molecular target: T4, mouse FcγRIII extracellular domain, …; experiment: SPR (Biacore T200)
Text: (§4) The antibody H chain variable region used was the variable region H237 (SEQ ID NO: 1) of the H chain VH3-IgG1 of the anti-IL-6 receptor antibody Fv4-IgG1 described in WO2009/125825. The antibody L chain commonly used was the L chain MRAL-k0 (SEQ ID NO: 2) of the anti-IL-6 receptor antibody tocilizumab. The aforementioned 7 variants were used as templates to substitute the amino acids at the alteration sites by the amino acids before the alteration. These variants were expressed and purified by the method of Reference Example 1 and evaluated for their binding to mFcγRII and mFcγRIII by the method of Reference Example 2 using Biacore T200.
as §2

[6] = molecular target: T5, mouse FcγRII extracellular domain, …; experiment: SPR (Biacore T200); KD of H237-mIgG1/MRAL-k0 / KD of variant
Text: as §4, §2

Binder	relative mFcγRII-binding activity (mIgG1 = 1) [1]	relative mFcγRIII-binding activity (mIgG1 = 1) [2]	Kd [3]	Kd [4]	relative mFcγRII-binding activity (H237-mIgG1/L104-mk1 = 1) (mouse FcγRII)	binding result [5]	relative mFcγRII-binding activity (mIgG1 = 1) [6]
H237-MB367/MRAL-k0 (antibody, mouse IgG1, kappa, T230E/V231A/P232N/S238E/S239D (EU) against H237-mIgG1; copies: 2 + 2) heavy: QVQLQESGPGLVKPSETLSLTCAVSGHSISHDHAWSWVRQPPGEGLEWIGFISYSGITNYNPSLQGRVTISRDNSKNTLYLQMNSLRAEDTAVYYCARSLARTTAMDYWGEGTLVTVSSAKTTPPSVYPLAPGSAAQTNSMVTLGCLVKGYFPEPVTVTWNSGSLSSGVHTFPAVLQSDLYTLSSSVTVPSSTWPSETVTCNVAHPASSTKVDKKIVPRDCGCKPCICEANEVEDVFIFPPKPKDVLTITLTPKVTCVVVDISKDDPEVQFSWFVDDVEVHTAQTQPREEQFNSTFRSVSELPIMHQDWLNGKEFKCRVNSAAFPAPIEKTISKTKGRPKAPQVYTIPPPKEQMAKDKVSLTCMITDFFPEDITVEWQWNGQPAENYKNTQPIMDTDGSYFVYSKLNVQKSNWEAGNTFTCSVLHEGLHNHHTEKSLSHSPGK light: not shown	159 fold	6.2 fold	1.32 nM	45.4 nM			
H237-mF46/MRAL-k0 (antibody, mouse IgG1, kappa, S239D/A327D (EU) against H237-mIgG1; copies: 2 + 2) heavy: QVQLQESGPGLVKPSETLSLTCAVSGHSISHDHAWSWVRQPPGEGLEWIGFISYSGITNYNPSLQGRVTISRDNSKNTLYLQMNSLRAEDTAVYYCARSLARTTAMDYWGEGTLVTVSSAKTTPPSVYPLAPGSAAQTNSMVTLGCLVKGYFPEPVTVTWNSGSLSSGVHTFPAVLQSDLYTLSSSVTVPSSTWPSETVTCNVAHPASSTKVDKKIVPRDCGCKPCICTVPEVSDVFIFPPKPKDVLTITLTPKVTCVVVDISKDDPEVQFSWFVDDVEVHTAQTQPREEQFNSTFRSVSELPIMHQDWLNGKEFKCRVNSADFPAPIEKTISKTKGRPKAPQVYTIPPPKEQMAKDKVSLTCMITDFFPEDITVEWQWNGQPAENYKNTQPIMDTDGSYFVYSKLNVQKSNWEAGNTFTCSVLHEGLHNHHTEKSLSHSPGK light: not shown	158 fold	44 fold	1.33 nM	6.4 nM			
H237-MB492/L104-mk1 (antibody, mouse IgG1, kappa, the text gives the rounded value for this form; copies: 2 + 2) heavy: QVQLQESGPGLVKPSETLSLTCAVSGHSISHDHAWSWVRQPPGEGLEWIGFISYSGITNYNPSLQGRVTISRDNSKNTLYLQMNSLRAEDTAVYYCARSLARTTAMDYWGEGTLVTVSSAKTTPPSVYPLAPGSAAQTNSMVTLGCLVKGYFPEPVTVTWNSGSLSSGVHTFPAVLQSDLYTLSSSVTVPSSTWPSETVTCNVAHPASSTKVDKKIVPRDCGCKPCICEPNEVEDVFIFPPKPKDVLTITLTPKVTCVVVDISKDDPEVQFSWFVDDVEVHTAQTQPREEQFNSTFRSVSELPIMHQDWLNGKEFKCRVDSAAFPAPIEKTISKTKGRPKAPQVYTIPPPKEQMAKDKVSLTCMITDFFPEDITVEWQWNGQPAENYKNTQPIMDTDGSYFVYSKLNVQKSNWEAGNTFTCSVLHEGLHNHHTEKSLSHSPGK light: DIQMTQSPSSLSASVGDSVTITCQASTDISSHLNWYQQKPGKAPELLIYYGSHLLSGVPSRFSGSGSGTDFTFTISSLEAEDAATYYCGQGNRLPYTFGQGTKVEIERADAAPTVSIFPPSSEQLTSGGASVVCFLNNFYPKDINVKWKIDGSERQNGVLNSWTDQDSKDSTYSMSSTLTLTKDEYERHNSYTCEATHKTSTSPIVKSFNRNEC					~620 fold		
H237-MB697/MRAL-k0 (antibody, mouse IgG1, kappa, copies: 2 + 2) heavy: QVQLQESGPGLVKPSETLSLTCAVSGHSISHDHAWSWVRQPPGEGLEWIGFISYSGITNYNPSLQGRVTISRDNSKNTLYLQMNSLRAEDTAVYYCARSLARTTAMDYWGEGTLVTVSSAKTTPPSVYPLAPGSAAQTNSMVTLGCLVKGYFPEPVTVTWNSGSLSSGVHTFPAVLQSDLYTLSSSVTVPSSTWPSETVTCNVAHPASSTKVDKKIVPRDCGCKPCICEPPEVEFVFIFPPKPKDVLTITLTPKVTCVVVDISKDDPEVQFSWFVDDVEVHTAQTQPREEQFNSTFRSVSELPIMHQDWLNGKEFKCRVNSAAFPAPIEKTISKTKGRPKAPQVYTIPPPKEQMAKDKVSLTCMITDFFPEDITVEWQWNGQPAENYKNTQPIMDTDGSYFVYSKLNVQKSNWEAGNTFTCSVLHEGLHNHHTEKSLSHSPGK light: not shown						no binding	0.217 fold
